Data published in patent publication US20230303701A1 (ABEXXA BIOLOGICS, published 2023).
Read-outs that look alike come from different tables or passages of the source.

Tests used:
[1] = target: V-0025 (…, HLA-G signal peptide)/HLA-E*0103 monomer complex (human); experiment: ELISA, V-0025 at 0.25 µg/mL, antibody titrated from 2 µg/mL to 3.8 pg/mL
[2] = target: HLA-E on cells that do not present the HLA-G signal peptide (unpulsed K562.E cells; HLA-E positive, HLA-G negative cells; Tap-1 knock-out cells) (human) (UniProt P13747); experiment: flow cytometry, K562.E, column 0 µg/mL +mIgG1
Chain of HLA-E on cells that do not present the HLA-G signal peptide (unpulsed K562.E cells; HLA-E positive, HLA-G negative cells; Tap-1 knock-out cells) (human) (P13747 22-358): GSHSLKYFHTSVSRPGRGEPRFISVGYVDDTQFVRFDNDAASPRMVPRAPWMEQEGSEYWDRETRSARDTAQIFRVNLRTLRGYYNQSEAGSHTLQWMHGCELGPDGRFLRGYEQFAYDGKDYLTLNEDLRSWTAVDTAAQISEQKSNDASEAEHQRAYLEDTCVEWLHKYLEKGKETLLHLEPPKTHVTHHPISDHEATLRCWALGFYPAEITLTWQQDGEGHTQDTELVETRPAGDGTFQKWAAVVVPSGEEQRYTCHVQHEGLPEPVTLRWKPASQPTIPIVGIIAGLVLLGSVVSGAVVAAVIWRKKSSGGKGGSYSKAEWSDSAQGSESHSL

[3] = target: HLA-E/… (V-0025, HLA-G signal peptide) complex on cells (human) (UniProt P13747); experiment: flow cytometry, K562.E +V-0025, column 0 µg/mL +mIgG1
[4] = target: V-0034 (…)/HLA-E 01:03 monomer complex (human); experiment: ELISA, monomers on a neutravidin plate
[5] = target: V-0037 (…)/HLA-E 01:03 monomer complex (human); experiment: ELISA, monomers on a neutravidin plate
[6] = target: V-0043 (…)/HLA-E 01:03 monomer complex (human); experiment: ELISA, monomers on a neutravidin plate
[7] = target: V-0021 (…)/HLA-E 01:03 monomer complex (human); experiment: ELISA, monomer at 0.25 ug/ml on neutravidin plate (FIG. 9B)
[8] = target: V-0035 (…)/HLA-E 01:03 monomer complex (human); experiment: as above
[9] = target: V-0040 (…)/HLA-E 01:03 monomer complex (human); experiment: as above
[10] = target: V-0041 (…)/HLA-E 01:03 monomer complex (human); experiment: as above
[11] = target: V-0042 (…)/HLA-E 01:03 monomer complex (human); experiment: as above
[12] = target: V-0044 (…)/HLA-E 01:03 monomer complex (human); experiment: as above
[13] = target: V-0045 (…)/HLA-E 01:03 monomer complex (human); experiment: as above
[14] = target: V-0046 (…)/HLA-E 01:03 monomer complex (human); experiment: as above
[15] = target: V-0038 (…, Hsp60)/HLA-E 01:03 monomer complex (human); experiment: as above
[16] = target: P-0550 (…, PODXL2)/HLA-E 01:03 monomer complex (human); experiment: as above
peptide-empty HLA-E = peptide-empty HLA-E (human); experiment: ELISA, ABX0011 in mouse serum, HLA-E 01:03 monomers
[17] = target: T1, HLA-G on cell lines that express HLA-G but not HLA-E (human, UniProt P17693 25-338); experiment: flow cytometry, IFNγ-stimulated JEG3 HLA-E knock-out
T1 construct: whole, on cells

[18] = target: T2, V-0025 (…, HLA-G signal peptide)/HLA-E*0103 monomer complex (human); experiment: ELISA, V-0025 at 0.25 µg/mL, antibody titrated from 2 µg/mL to 3.8 pg/mL
T2 construct: also called ABI-V-0025; 0025-E 01:03 monomer complex

[19] = target: T3, HLA-E/… (V-0025, HLA-G signal peptide) complex on cells (human, UniProt P13747 22-358; P61769 21-119); experiment: flow cytometry, ABX0011 staining with Fc block, K562.E cells pulsed with 20 ug/mL peptide for 2hr
T3 construct: also called K562.E + V-0025; V-0025 peptide pulsed K562 cells expressing HLA-E

[20] = target: T4, V-0034 (…) pulsed on K562 cells expressing HLA-E (human, UniProt P13747 22-358; P61769 21-119); experiment: as above
[21] = target: T5, P-0550 (…, PODXL2) pulsed on K562 cells expressing HLA-E (human, UniProt P13747 22-358; P61769 21-119); experiment: as above
[22] = target: T2, V-0025 (…, HLA-G signal …); experiment: label-free ResoSens instrument; ABX0011 captured by anti-IgG-Fc, monomer complex in serial dilutions from 5 µg/ml; monovalent
[23] = target: T1, HLA-G on cell lines that express HLA-G …; experiment: flow cytometry, JEG3 stimulated with IFNγ (FIG. 25A of the legend)
[24] = target: V-0021 (…) pulsed on K562 cells expressing HLA-E (human, UniProt P13747 22-358; P61769 21-119); experiment: flow cytometry, peptide-pulsed K562.E cells, antibody molecules per cell
[25] = target: T4, V-0034 (…) pulsed on K562 cells …; experiment: as above
[26] = target: V-0035 (…) pulsed on K562 cells expressing HLA-E (human, UniProt P13747 22-358; P61769 21-119); experiment: as above
[27] = target: V-0037 (…) pulsed on K562 cells expressing HLA-E (human, UniProt P13747 22-358; P61769 21-119); experiment: as above
[28] = target: V-0040 (…) pulsed on K562 cells expressing HLA-E (human, UniProt P13747 22-358; P61769 21-119); experiment: as above
[29] = target: V-0041 (…) pulsed on K562 cells expressing HLA-E (human, UniProt P13747 22-358; P61769 21-119); experiment: as above
[30] = target: V-0042 (…) pulsed on K562 cells expressing HLA-E (human, UniProt P13747 22-358; P61769 21-119); experiment: as above
[31] = target: V-0043 (…) pulsed on K562 cells expressing HLA-E (human, UniProt P13747 22-358; P61769 21-119); experiment: as above
[32] = target: V-0044 (…) pulsed on K562 cells expressing HLA-E (human, UniProt P13747 22-358; P61769 21-119); experiment: as above
[33] = target: V-0045 (…) pulsed on K562 cells expressing HLA-E (human, UniProt P13747 22-358; P61769 21-119); experiment: as above
[34] = target: V-0046 (…) pulsed on K562 cells expressing HLA-E (human, UniProt P13747 22-358; P61769 21-119); experiment: as above
[35] = target: V-0038 (…, Hsp60) pulsed on K562 cells expressing HLA-E (human, UniProt P13747 22-358; P61769 21-119); experiment: as above
[36] = target: T5, P-0550 (…, PODXL2) pulsed on K562 cells …; experiment: as above

Molecule anti-HLA-E antibody clone 3D12 has an EC50 (read off the curve) [1] of 7 ng/mL.

For mIgG1 (antibody), the % of cells in Q3 (HLA-E channel +, Fab-scFv-Fc -) [2] was 0.39 and the % of cells in Q3 (HLA-E channel +, Fab-scFv-Fc -) [3] was 0.37.

B1: ABX0011 (antibody, V domains shown)
VH: EVQLLESGGGLVQPGGSLRLSCAASGFTFSSYAMSWVRQAPGKGLEWVSTIAYGGGATAYADSVKGRFTISRDNSKNTLYLQMNSLRAEDTAVYYCAKGLSNFDYWGQGTLVTVSS
VL: DIQMTQSPSSLSASVGDRVTITCRASQSISSYLNWYQQKPGKAPKLLIYAASSLQSGVPSRFSGSGSGTDFTLTISSLQPEDFATYYCQQAAAYPSLFGQGTKVEIK
notes: also called ABX-11; R2-C02 as hIgG1
B1: no binding (tested: 1 ug/ml) [4]; no binding (tested: 1 ug/ml) [5]; no binding (tested: 1 ug/ml) [6]. B1: no binding (tested: 1 ug/ml) [7]; no binding (tested: 1 ug/ml) [8]; no binding (tested: 1 ug/ml) [9]. B1: no binding (tested: 1 ug/ml) [10]; no binding (tested: 1 ug/ml) [11]; no binding (tested: 1 ug/ml) [12]. B1: no binding (tested: 1 ug/ml) [13]; no binding (tested: 1 ug/ml) [14]; no binding (tested: 1 ug/ml) [15]. B1: no binding (tested: 1 ug/ml) [16]; no binding (tested: 1 µg/ml) (peptide-empty HLA-E); no binding (tested: 1 µg/mL) [17]. The “EC50 (read off the curve)” value [18] was roughly 1 ng/mL, the “EC50 (read off the curve)” value [19] was roughly 0.05 µg/mL and the binding result [20] was “no binding (tested: 10 µg/mL)”. The binding result [21] was “no binding (tested: 10 µg/mL)” and the Kd [22] was 7.9 nM.

B2: ABX0012 (ABX0011 with mouse IgG1) (antibody, V domains shown)
VH: EVQLLESGGGLVQPGGSLRLSCAASGFTFSSYAMSWVRQAPGKGLEWVSTIAYGGGATAYADSVKGRFTISRDNSKNTLYLQMNSLRAEDTAVYYCAKGLSNFDYWGQGTLVTVSS
VL: DIQMTQSPSSLSASVGDRVTITCRASQSISSYLNWYQQKPGKAPKLLIYAASSLQSGVPSRFSGSGSGTDFTLTISSLQPEDFATYYCQQAAAYPSLFGQGTKVEIKR
notes: also called ABX012; AB0012
B2: no binding [23]; no binding [24]; no binding [25]. B2: no binding [26]; no binding [27]; no binding [28]. B2: no binding [29]; no binding [30]; no binding [31]. B2: no binding [32]; no binding [33]; no binding [34]. B2: no binding [35]; no binding [36].
